A word on the IC50: it is the concentration needed to halve the response being measured.

We go through two molecules from US20050036942A1 (Genentech, published 2005).

In one experiment the target is T1, murine PSCA (mPSCA) (murine, UniProt P57096 21-95).
T1 construct: also called muPSCA; his Mu PSCA - E. coli
T1 sequence (looked up): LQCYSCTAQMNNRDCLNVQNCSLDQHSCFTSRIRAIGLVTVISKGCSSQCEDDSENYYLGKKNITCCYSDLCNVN
Put plainly: direct ELISA, antigen coated at 1 µg/ml. Background: In an ELISA, binding on a coated surface is turned into a signal by an enzyme label.

The target of experiment [1] is gD-tagged human PSCA expressed on transfected cells (Herpes Simplex virus; human, UniProt O43653 12-91).

Experimental for murine PSCA (mPSCA): HuPSCA and murine PSCA (mPSCA) were coated overnight at 1 μg/ml onto a microtiter plate (Nunc). The anti-PSCA Mab and controls were added to the antigen-coated wells and incubated at room temperature. Unbound antibody was washed off and a horseradish peroxidase (HRP)-conjugated secondary antibody was added to the wells and incubated with the antibodies at room temperature. OPD substrate solution was finally added and concentrated sulfuric acid was used to stop the reaction. The plate was read at 492 nm using a microtiter plate reader.

B1: anti-PSCA monoclonal antibody 6B8.1D7.2B3 (antibody, V domains shown)
VH: EVQLQQSGPDLEKPGASVKISCKPSGNSFTGYYIHWVKQSHGKSLEWIGRVDPNNGFTSYNQKFKGKAILTVDKSSSTAYMELRSLTSEDSAVYYCVGNFFDSWGQGTTLTVSS
VL: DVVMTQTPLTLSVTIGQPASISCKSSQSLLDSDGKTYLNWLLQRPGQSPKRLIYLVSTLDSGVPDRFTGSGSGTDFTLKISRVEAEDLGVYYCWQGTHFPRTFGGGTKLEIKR
notes: also called Asc# 2761; #2761
For B1, the binding result with murine PSCA (mPSCA) is given as “no binding”.

B2: anti-PSCA monoclonal antibody 5F2.4H4.1E3 (antibody, V domains shown)
VH: QVQVQQPGAELVKPGAPVKLSCKASGYTFTNYWLNWVKQRPGRGLEWIGRIDPSDSEIHYDQKFKDKATLTVDKSSSTAYIQLSSLTSEDSAVYYCALTGIYAMAYWGQGTSVTVSS
VL: DIVMTQAAPSVPVTPGESVSISCRSSKSLLHSNGNTYLYWFLQRPGQSPQLLIYRMSNLASGVPDRFSGSGSGTAFTLRISRVEAEDVGVYYCLQHLEYPYTFGGGTKLELKR
As to B2, inhibition in experiment [1] was half-maximal at 13 nM (IC50).
